Source: US20240093191A1, “COMPOSITIONS AND METHODS FOR TREATING DISEASE ASSOCIATED WITH DUX4 OVEREXPRESSION” (RESEARCH INSTITUTE AT NATIONWIDE CHILDREN'S HOSPITAL, priority 2021, published 2024)

How the values were obtained:
mir-675 = settings: published gene expression studies; cited from earlier work
[1] = test system: DUX4 ORF (RenLuc-DUX4 ORF); experiment: Dual-luciferase assay, RenLuc-DUX4 ORF reporter co-transfected with miDUX4 plasmids in HEK293 cells; type: cell-based, human; settings: HEK293, 24 h
Procedure, shortened: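 HEK293 cells were co-transfected by lipofection with a psiCheck2 reporter carrying the DUX4 ORF as the Renilla luciferase 3′UTR and U6-driven miDUX4 plasmids, at increasing reporter:miRNA molar ratios. Renilla/Firefly ratio was read 24 h or 48 h post-transfection, with Firefly as transfection normaliser. Values are means ± SEM of triplicates over 3 experiments.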

[2] = test system: DUX4-FL (DUX4 ORF + 3'UTR, RenLuc-DUX4-FL); experiment: Dual-luciferase assay, RenLuc-DUX4-FL reporter co-transfected with miRNA plasmids in HEK293 cells; type: cell-based, human; settings: positive control, molar ratio not stated, 48 h
Source text: FIG. 1A. Dual-luciferase assay to test the ability of U6.mir-675 to target DUX4. Shown here is the mir-675 expression plasmid used in this study. In this construct, the RNA polymerase III U6 promoter (U6p) controls the expression of mir-675. A terminal signal formed of a stretch of six T nucleotides allows the termination of transcription. On the right, the secondary structure of the mir-675 along with its 5′ and 3′ end flanking sequences (Boxed) is shown. At the 5′ end, the flanking sequence is of 40 nucleotides long and at the 3′ end, the flanking sequence is of 47 nucleotides long starting from the nucleotide at position 114. U6.mir-675 was tested to target DUX4 using the dual-luciferase assay. To do this, DUX4 was cloned in the RenLuc-DUX4-FL expression plasmid (FIG. 1A), i.e., DUX4-FL (DUX4 ORF without V5 tag+3′UTR) was PCR amplified using CMV.DUX4-FLΔV5 as template with the following primers: forward: 5′ […] 3′ (SEQ ID NO: 125), reverse: 5′ […] 3′ (SEQ ID NO: 126). The PCR product was then cloned into a previously designed RenLuc SD5 mutant plasmid using XhoI/SpeI restriction sites and the RenLuc.SD5 mutant-DUX4 3′UTR plasmid backbone. The Renilla luciferase gene has a splicing donor mutation (*SID5) that prevents the alternative splicing of the DUX4-FL mRNA (Ansseau et al. (2015) PLoS One, 10, e0118813). The dual-luciferase assay was performed by co-transfecting the RenLuc-DUX4-FL and U6.mir-675 expression plasmids into the human embryonic kidney HEK293 cells. 48 hours after transfection, both the Renilla and Firefly luciferase activities were measured. The latter was used to normalize for Renilla luciferase activity. The non-targeting RenLuc control backbone plasmid (RenLuc) was co-transfected with U6.mir-675 and the RenLuc-DUX4-FL co-transfected with U6.milacZ as negative control reactions. In the other reactions, mir-675 reduced the relative Renilla luciferase activity by 24±3% (P<0.0001, ANOVA, N=3), 28±2% (P<0.0001, ANOVA, N=3) and 33±3% (P<0.0001, ANOVA, N=3) at a molarity ratio U6.mir-675: RenLuc-DUX4-FL (n:n) of 10 to 1, 20 to 1 and 40 to 1, respectively. All readings were normalized to the U6.milacZ (negative control). Six replicate data were averaged per experiment and individual experiments were performed in triplicate (N=3). Results were reported as the average relative Renilla luciferase activity±SEM for all combined experiments. […] A representative western blot gel and the quantification results of three independent western blot replicates (N=3) performed on 15 μg of total protein extracts collected from HEK293 cells 24 hours after co-transfection with the AAV.CMV.DUX4-FL and the U6.mir-675 or the human long non-coding H19 expression plasmid (CMV.H19) is shown here. […]

DUX4 protein = experiment: Western blot of V5-tagged DUX4 protein in co-transfected HEK293 cells; type: cell-based, human; settings: HEK293
mir-675-5p [3] = experiment: Small-transcript northern blot of mir-675 processing in HEK293 cells; type: cell-based, human; settings: HEK293; anti-mir-675-5p biotinylated probe
Source text: Small-Transcript Northern Blots. […] (SEQ ID NO: 148)).

pri-mir-675 = experiment: TaqMan QRT-PCR of pri-mir-675 from transfected constructs in HEK293 cells; type: cell-based, human; settings: 24 h post-transfection
Source text: RNA Extraction. RNA from HEK293 cells was extracted for Northern blot assay and QPCR. The miRVANA miRNA isolation kit (ThermoFisher Scientific) was used according to manufacturer's directions to extract total RNA encompassing small RNAs, such as miRNAs. To extract RNA from C57BL/6 skeletal muscles, cryopreserved muscles were crushed under suboptimal temperatures using liquid nitrogen and using mortar and pestle. Crushed muscles were then lysed using […] of miRVANA miRNA isolation kit lysis buffer, a TissueLyser and 1.0 mm zirconia beads (Biospec). Muscle was homogenized at 30 Hz for 30 sec with 10 sec rest. This was repeated 3 times.
TaqMan Gene Expression Assay. QRT-PCR was carried out to quantify the expression of pri-mir-675, mir-675-5p and mi405 using TaqMan probes (ThermoFisher Scientific). Experiments were started by eliminating genomic DNA from the RNA preparations, and then cDNA was generated using the High-Capacity cDNA Reverse Transcription Kit (Applied Biosystems) following manufacturer's instructions. Within the same cDNA reaction, 1×RT random hexamer primers were used to generate the cDNA for RPL13A, used as a reference gene, and for pri-mir-675. To generate the cDNA for mir-675, the RT mir-675 reverse primer provided by ThermoFisher Scientific was used. For mi405, the mi405 qPCR protocol was done as it was previously described [Wallace et al., Mol. Ther. Methods Clin. Dev. 8: 121-30 (2018)]. To quantify mir-675 and mi405 levels, RNA was extracted using the total RNA protocol for the mirVana miRNA Isolation Kit (Ambion) from HEK293 cells. cDNA was generated using the High-Capacity cDNA Reverse Transcription Kit (Applied Biosystems) using a mix of random hexamer primers and specific reverse primer for pri-mir-675 and mir-675-5p. For mi405, 200 nM of the stem-loop forming primer (5′-[…]-3′) (SEQ ID NO: 144) was also used for the RT step. A custom TaqMan assay (Applied Biosystems) including 1.5 μM of Forward primer (5′-[…]-3′) (SEQ ID NO: 145), 0.7 μM of Reverse primer (5′-GTGCAGGGTCCGAGGT-3′) (SEQ ID NO: 146), and 0.2 μM of mi405 probe (5′-6FAM-ATACGACGTCCAGGAT-3′) (SEQ ID NO: 147) was then run using the CFX Connect Real Time system apparatus (Bio-Rad). RPL13A (Mm02526700_g1; Applied Biosystems) served as the reference gene. The TaqMan gene expression assay consisted of using the TaqMan Gene Expression Master mix and TaqMan probes purchased from ThermoFisher Scientific. 1× of probe was mixed with 1× of the TaqMan Gene Expression Master mix (ThermoFisher Scientific), and with 20 ng of cDNA. The mir-675- and mi405-specific primers and probes were designed to quantify only the mir-675-5p and mi405 mature sequence (see TaqMan Gene Expression Master mix protocol).

mir-675-5p [4] = experiment: ddPCR of all mature mir-675-5p sequences (TaqMan Advanced miRNA cDNA synthesis) in HEK293 cells; type: cell-based, human
Description: Digital Droplet PCR (ddPCR). For mir-675 and mi405 constructs, RNA extraction was carried out as described for QPCR above. For cDNA synthesis, the TaqMan advanced cDNA synthesis kit (Thermo Fisher) was used and cDNA was prepared by following manufacturer's instructions. ddPCR was carried out using 1× ddPCR Supermix for probes (No dUTP) (Bio-Rad), 1× commercially available mir-675 advanced TaqMan probe, or a custom made mi405 advanced TaqMan probe (ThermoFisher) and 50 ng of cDNA. For DUX4 cDNA synthesis, the High-Capacity cDNA Reverse Transcription Kit (Applied Biosystems) was used according to manufacturer's instructions. Within the same cDNA reaction, 1×RT random hexamer primers and 25 pmoles of the Oligo(dT) primer were used to generate cDNA for DUX4 and DUX4-responsive biomarkers and for mouse Rpl13A, used as a reference gene. To quantify DUX4, the ddPCR reaction mixture (20 μL) contained 1× ddPCR Evagreen Supermix (Bio-Rad), 1 μM of forward and reverse DUX4 primers (Sharma et al., J Genet Syndr Gene Ther 2016 August; 7(4):303. doi: 10.4172/2157-7412.1000303. Epub 2016 Aug. 8), and 50 ng of cDNA. To quantify Rpl13A and DUX4-responsive biomarkers (Trim36 and Wfdc3), the 1× ddPCR Supermix for probes (No dUTP) and TaqMan specific probes were used for each of the genes. Droplets were generated using the Automatic Droplet generator QX200 AutoDG (Bio-Rad), the reactions were amplified in a C1000 Touch™ Thermal Cycler with 96-Deep Well Reaction Module (Bio-Rad). Cycling conditions were set up following the QX200 ddPCR Evagreen Supermix protocol. All assays are compatible with an annealing temperature of 58° C. Droplets were then read using the QX200 droplet reader (Bio-Rad). Finally, data were analyzed using the QuantaSoft analysis software (Bio-Rad). For quantification, each reaction of 20 μL was estimated to give at least 10,000 acceptable droplets.
In order to quantify the level of all these mature sequences, the TaqMan advanced miRNA cDNA synthesis method that uses universal reverse transcription (RT) chemistry to synthesize cDNA templates that can be quantified using the TaqMan Advanced miRNA probes was used. In this method, most of the processed mature miRNA sequences were quantified.

bleomycin
mir-675 expression (mir-675): upregulated mir-675 expression

estrogen
mir-675 expression (mir-675): mir-675 was induced

B1: U6.mi405: original artificially designed miDUX4 (mi405) U6 expression plasmid, Wallace et al. (nucleic acid)
DNA: ACGCCGCCATCTCTAGGCCCGCGCCGGCCCCCTCGCACAGACTTGTGGGAGAAGCTCGGCTACTCCCCTGCCCCGGTTAATTTGCATATAATATTTCCTAGTAACTATAGAGGCTTAATGTGCGATAAAAGACAGATAATCTGTTCTTTTTAATACTAGCTACATTTTACATGATAGGCTTGGATTTCTATAAGAGATACAAATACTAAATTATTATTTTAAAAAACAGCACAAAAGGAAACTCACCCTAACTGTAAAGTAATTGTGTGTTTTGAGACTATAAATATCCCTTGGAGAAAAGCCTTGTTTGCGTTTAGTGAACCGTCAGATGGTACCGTTTAAACTCGAGTGAGCGATCCAGGATTCAGATCTGGTTTCTGTAAAGCCACAGATGGGAAACCAGATCTGAATCCTGGACTGCCTACTAGAGCGGCCGCCACAGCGGGGAGATCCAGACATGATAAGATACATTTTTT
reduction of relative Renilla luciferase activity ([1]; 1:4 DUX4:mi405 molar ratio, normalized to miGFP): 85±1%
reduction of Renilla luciferase activity ([1]; DUX4:mi405 molar ratio 2 to 1, normalized to U6.miGFP): 62±2%
reduction of relative Renilla luciferase activity [2]: 80±2%
reduction of DUX4 protein levels (DUX4 protein; 1:4 DUX4:mi405 molar ratio, 24 h, normalized to miGFP, N=2): 79±1%

B2: U6.mir-675NF: U6 mir-675 construct with no flanking sequences (nucleic acid)
DNA: TCTAGAGATCCGACGCCGCCATCTCTAGGCCCGCGCCGGCCCCCTCGCACAGACTTGTGGGAGAAGCTCGGCTACTCCCCTGCCCCGGTTAATTTGCATATAATATTTCCTAGTAACTATAGAGGCTTAATGTGCGATAAAAGACAGATAATCTGTTCTTTTTAATACTAGCTACATTTTACATGATAGGCTTGGATTTCTATAAGAGATACAAATACTAAATTATTATTTTAAAAAACAGCACAAAAGGAAACTCACCCTAACTGTAAAGTAATTGTGTGTTTTGAGACTATAAATATCCCTTGGAGAAAAGCCTTGTTTGCCCCAGGGTCTGGTGCGGAGAGGGCCCACAGTGGACTTGGTGACGCTGTATGCCCTCACCGCTCAGCCCCTGGGGTTTTTT
mature mir-675-5p bands on northern blot (mir-675-5p [3]): detectable mir-675 mature sequences
pri-mir-675 levels compared to U6.mir-675 (pri-mir-675): 213±28%
fold change of all mature mir-675-5p sequences compared to U6.mir-675 (mir-675-5p [4]): 176±60%
Average inhibition efficiency (%) of DUX4 protein levels (DUX4 protein; CMV.DUX4-FL/CMV.eGFP, molar ratio 1 to 3, eGFP normalizer, relative to U6-milacZ, N = 3-8): 69 ± 6 (N = 5) %
